A word on the Kd: it is the concentration at which binding is half-saturated. The koff is the first-order rate constant of dissociation. As a reminder, the kon is the rate constant with which the complex forms. In general, EC50 (read off the curve) refers to the concentration giving half of the maximal effect.

These results are taken from US20250019438A1 (AstraZeneca / MedImmune, published 2025).

Test [1] deals with Biotinylated recombinant human CD3εδ (Acro Biosystems, CDD-H82W6) (human) (UniProt P07766). Put plainly: Octet BLI, biotinylated CD3εδ on streptavidin sensors, 1:1 model. For orientation: In BLI a coated tip is dipped into the sample, and binding shifts an interference pattern.
Biotinylated recombinant human CD3εδ (Acro Biosystems, CDD-H82W6) (human), sequence (P07766 23-126, stated change not applied, chain 1 of 2): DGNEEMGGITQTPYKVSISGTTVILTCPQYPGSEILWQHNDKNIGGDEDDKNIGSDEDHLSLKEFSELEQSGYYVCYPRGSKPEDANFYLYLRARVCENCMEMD
Biotinylated recombinant human CD3εδ (Acro Biosystems, CDD-H82W6) (human), sequence (P04234 22-105, stated change not applied, chain 2 of 2, further chain): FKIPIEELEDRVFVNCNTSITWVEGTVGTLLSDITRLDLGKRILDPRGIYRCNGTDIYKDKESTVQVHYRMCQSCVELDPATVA
Test [2] deals with T1, Human CD3 on HPB-ALL and Jurkat cells (human, UniProt P07766 23-207; P04234 22-171; P09693 23-182).
T1 construct: whole, on cells; also called hCD3+; human CD3+ cells
T1 sequence (P07766 23-207, chain 1 of 3): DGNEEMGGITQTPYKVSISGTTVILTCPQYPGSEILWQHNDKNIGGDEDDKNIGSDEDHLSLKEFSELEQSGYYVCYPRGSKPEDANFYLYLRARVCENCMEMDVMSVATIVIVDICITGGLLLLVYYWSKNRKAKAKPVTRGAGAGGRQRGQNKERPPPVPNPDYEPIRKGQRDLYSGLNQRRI
T1 sequence (P04234 22-171, chain 2 of 3): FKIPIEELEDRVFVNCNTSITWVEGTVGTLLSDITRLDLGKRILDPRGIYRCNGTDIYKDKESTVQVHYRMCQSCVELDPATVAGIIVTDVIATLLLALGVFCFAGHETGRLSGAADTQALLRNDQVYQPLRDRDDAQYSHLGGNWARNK
T1 sequence (P09693 23-182, chain 3 of 3): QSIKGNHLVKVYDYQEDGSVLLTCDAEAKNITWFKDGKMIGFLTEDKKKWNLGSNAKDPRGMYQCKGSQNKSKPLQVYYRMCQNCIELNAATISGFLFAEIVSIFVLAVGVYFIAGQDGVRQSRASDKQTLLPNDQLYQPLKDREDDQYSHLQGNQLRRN
Put plainly: flow cytometry on HPB-ALL cells (hCD3++), EGFR-CD3 DuetMab, detection with Alexa Fluor 647 goat F(ab')2 anti-human IgG Fcγ. For orientation: In flow cytometry, cells or beads pass a laser one at a time.

Test [3] deals with T2, Cynomolgus monkey CD3 on HSC-F cells (cynomolgus monkey, UniProt Q95LI5 22-198; Q95LI8 22-171; Q95LI7 23-181).
T2 construct: whole, on cells; CD3 complex; also called cyCD3+; cynomolgus CD3+ cells
T2 sequence (Q95LI5 22-198, chain 1 of 3): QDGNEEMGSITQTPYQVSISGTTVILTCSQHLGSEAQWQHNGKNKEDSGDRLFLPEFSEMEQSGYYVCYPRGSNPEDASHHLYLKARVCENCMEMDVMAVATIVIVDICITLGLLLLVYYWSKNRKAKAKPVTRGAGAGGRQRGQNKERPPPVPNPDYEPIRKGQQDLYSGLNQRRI
T2 sequence (Q95LI8 22-171, chain 2 of 3): as the sequence (P04234 22-171, chain 2 of 3) above, with I5V, N15K, I20V, S32T, D33N, I34N, T64A, S74N, V83L, H141R counted along it
T2 sequence (Q95LI7 23-181, chain 3 of 3): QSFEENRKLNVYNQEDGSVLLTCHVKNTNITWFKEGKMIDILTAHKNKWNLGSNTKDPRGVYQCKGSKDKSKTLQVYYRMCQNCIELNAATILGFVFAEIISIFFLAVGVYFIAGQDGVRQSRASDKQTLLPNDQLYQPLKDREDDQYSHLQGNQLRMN
In words: flow cytometry on HSC-F cells (cyCD3++), detection with Alexa Fluor 647 goat F(ab')2 anti-human IgG Fcγ. The method, then: (§1) Flow Cytometry was used to determine specific cell surface antigen binding. The human leukemia T cell lines HPB-ALL, Jurkat, Jurkat TCR KO, and cynomolgus T cell line HSC-F were used to assess human CD3 and cynomolgus CD3 binding, respectively. Briefly, 1×10⁵ cells were suspended in FACS buffer (1×PBS, pH 7.2 supplemented with 2% heat-inactivated FBS, 0.1% sodium azide and 2 mM EDTA) and placed into each well of a round-bottom 96-well plate. Antibodies were diluted to various concentrations using FACS buffer and added to the cells. Antibodies and cells were washed twice with FACS buffer after incubation at 4° C. for 30 min. Cell surface antigen binding of antibodies was detected with Alexa Fluor 647-conjugated goat F(ab′)₂ fragment specifically against human IgG Fcγ fragment. Data was collected using a BD FACSymphony A3 Cell Analyzer (BD Biosciences). Data was analyzed with FlowJo v10.6.1 and plotted using GraphPad Prism v9.0.0.

The target in test [4] is T2, Cynomolgus monkey CD3 on HSC-F cells. In words: flow cytometry on HSC-F cells (cyCD3+), detection with Alexa Fluor 647 goat F(ab')2 anti-human IgG Fcγ. As for the experimental part:
as §1

B1: EGFR-CD3 DuetMab with the parental anti-CD3 arm (bispecific antibody, part only; not given: anti-EGFR arm, constant regions, V domains shown, not shown: another chain or arm of the molecule; a dimerising Fc or GST; small tags and cut ends)
VH: QVQLVESGGGVVQPGRSLRLSCAASGFTFTKAWMHWVRQAPGKQLEWVAQIKDKSNSYATYYADSVKGRFTISRDDSKNTLYLQMNSLRAEDTAVYYCRGVYYALSPFDYWGQGTLVTVSS
VL: DIVMTQTPLSLSVTPGQPASISCKSSQSLVHNNANTYLSWYLQKPGQSPQSLIYKVSNRFSGVPDRFSGSGSGTDFTLKISRVEAEDVGVYYCGQGTQYPFTFGSGTKVEIK
As to B1, in test [1], the dissociation constant Kd was found to be 24.3 nM, the koff turned out to be 0.00105 s⁻¹ and the kon turned out to be 43300 M⁻¹ s⁻¹. The EC50 (read off the curve) in test [2] came to 50 nM.

B2: AZ Vκ+AZ VH IgG1-TM (antibody, V domains shown)
VH: B1 VH
VL: B1 VL
notes: also called parental AZ Vκ+AZ VH IgG1-TM; parental anti-CD3 antibody
Take B2: the concentration for a half-maximal effect (EC50 (read off the curve)) in test [3] and in test [4] was around 40 nM throughout.
